Data on one molecule can be found in patent US20240182536A1.

Assay [1] has as its target T1, mouse IL-18 binding protein (mouse) (UniProt Q9Z0M9).
T1 sequence (looked up): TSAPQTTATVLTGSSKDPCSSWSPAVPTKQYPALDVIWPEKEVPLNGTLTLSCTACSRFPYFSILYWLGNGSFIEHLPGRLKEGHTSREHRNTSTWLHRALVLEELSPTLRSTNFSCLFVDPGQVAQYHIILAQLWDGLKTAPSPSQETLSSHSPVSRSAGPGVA
Description: cell-based or functional assay.

Assay [2] deals with T2, mouse IL-18 receptors on PathHunter U2OS mIL18-NF-kb reporter cells (mouse) (UniProt Q61098).
T2 sequence (looked up) 1: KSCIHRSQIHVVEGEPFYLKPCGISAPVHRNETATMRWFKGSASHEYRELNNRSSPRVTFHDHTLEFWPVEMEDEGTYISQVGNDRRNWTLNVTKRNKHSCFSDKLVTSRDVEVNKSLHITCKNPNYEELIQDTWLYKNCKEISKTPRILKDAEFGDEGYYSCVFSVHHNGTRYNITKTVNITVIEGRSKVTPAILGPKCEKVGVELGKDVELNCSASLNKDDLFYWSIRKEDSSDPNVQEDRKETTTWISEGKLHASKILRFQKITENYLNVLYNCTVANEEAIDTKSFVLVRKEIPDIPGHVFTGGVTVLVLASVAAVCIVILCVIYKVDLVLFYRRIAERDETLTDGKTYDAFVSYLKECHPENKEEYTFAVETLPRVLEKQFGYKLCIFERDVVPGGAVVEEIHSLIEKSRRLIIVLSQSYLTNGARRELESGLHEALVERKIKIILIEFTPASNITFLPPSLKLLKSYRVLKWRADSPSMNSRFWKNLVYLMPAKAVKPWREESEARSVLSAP
T2 sequence (looked up) 2: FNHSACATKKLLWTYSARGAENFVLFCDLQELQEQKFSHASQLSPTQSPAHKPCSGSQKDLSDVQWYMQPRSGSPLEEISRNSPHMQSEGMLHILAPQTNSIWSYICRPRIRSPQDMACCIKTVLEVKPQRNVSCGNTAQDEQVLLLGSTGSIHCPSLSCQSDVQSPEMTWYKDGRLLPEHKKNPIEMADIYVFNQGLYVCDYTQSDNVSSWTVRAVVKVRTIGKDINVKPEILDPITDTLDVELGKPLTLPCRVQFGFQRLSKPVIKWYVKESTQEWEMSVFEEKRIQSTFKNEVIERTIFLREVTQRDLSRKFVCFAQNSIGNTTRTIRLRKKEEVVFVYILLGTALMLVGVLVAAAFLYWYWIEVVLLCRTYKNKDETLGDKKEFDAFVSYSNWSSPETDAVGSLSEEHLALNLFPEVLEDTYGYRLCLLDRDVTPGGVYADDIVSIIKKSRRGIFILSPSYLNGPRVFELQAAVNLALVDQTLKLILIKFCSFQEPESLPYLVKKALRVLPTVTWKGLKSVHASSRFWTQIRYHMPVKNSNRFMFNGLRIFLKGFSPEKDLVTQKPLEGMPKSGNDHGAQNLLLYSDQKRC
Nature of the assay: cell-based or functional assay.

B1: WT mouse IL-18 (ligand, UniProt P70380 36-192, looked up)
chain: NFGRLHCTTAVIRNINDQVLFVDKRQPVFEDMTDIDQSASEPQTRLIIYMYKDSEVRGLAVTLSVKDSKMSTLSCKNKIISFEEMDPPENIDDIQSDLIFFQKRVPGHNKMEFESSLYEGHFLACQKEDDAFKLILKKKDENGDKSVMFTLTNLHQS
In assay [1], B1 registered a mouse IL-18 reporter assay EC50, +Mouse IL-18BP 50 nM of more than 500 pM. Moreover, the mouse IL-18 reporter assay EC50, without mouse IL-18BP in assay [2] stood at 0.61 pM.
